# Reference: IntAct's records for PubMed 26592460
# B1: "NAD(+) hydrolase SARM1" (Homo sapiens), Q6SZW1 (parent)
# chain: MVLTLLLSAYKLCRFFAMSGPRPGAERLAVPGPDGGGGTGPWWAAGGRGPREVSPGAGTEVQDALERALPELQQALSALKQAGGARAVGAGLAEVFQLVEEAWLLPAVGREVAQGLCDAIRLDGGLDLLLRLLQAPELETRVQAARLLEQILVAENRDRVARIGLGVILNLAKEREPVELARSVAGILEHMFKHSEETCQRLVAAGGLDAVLYWCRRTDPALLRHCALALGNCALHGGQAVQRRMVEKRAAEWLFPLAFSKEDELLRLHACLAVAVLATNKEVEREVERSGTLALVEPLVASLDPGRFARCLVDASDTSQGRGPDDLQRLVPLLDSNRLEAQCIGAFYLCAEAAIKSLQGKTKVFSDIGAIQSLKRLVSYSTNGTKSALAKRALRLLGEEVPRPILPSVPSWKEAEVQTWLQQIGFSKYCESFREQQVDGDLLLRLTEEELQTDLGMKSGITRKRFFRELTELKTFANYSTCDRSNLADWLGSLDPRFRQYTYGLVSCGLDRSLLHRVSEQQLLEDCGIHLGVHRARILTAAREMLHSPLPCTGGKPSGDTPDVFISYRRNSGSQLASLLKVHLQLHGFSVFIDVEKLEAGKFEDKLIQSVMGARNFVLVLSPGALDKCMQDHDCKDWVHKEIVTALSCGKNIVPIIDGFEWPEPQVLPEDMQAVLTFNGIKWSHEYQEATIEKIIRFLQGRSSRDSSAGSDTSLEGAAPMGPT
# Variants of: B1
# Conditions: with myd88_human MYD88, Q99836
# myd88_human MYD88, Q99836, sequence (Q99836 whole entry): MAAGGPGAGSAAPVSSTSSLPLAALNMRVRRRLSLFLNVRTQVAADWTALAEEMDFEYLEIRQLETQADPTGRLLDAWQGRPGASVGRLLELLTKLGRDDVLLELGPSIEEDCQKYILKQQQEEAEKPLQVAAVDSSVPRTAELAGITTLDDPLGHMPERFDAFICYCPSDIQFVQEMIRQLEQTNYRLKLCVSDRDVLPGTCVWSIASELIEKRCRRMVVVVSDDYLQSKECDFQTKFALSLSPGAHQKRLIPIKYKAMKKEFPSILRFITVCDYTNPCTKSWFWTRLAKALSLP
row,Variant,effect of a mutation on the interaction
1,G601A,disrupting interaction strength

# Variants of: B1
# Conditions: with tcam1_human TICAM1, Q8IUC6
# tcam1_human TICAM1, Q8IUC6, sequence (Q8IUC6 whole entry): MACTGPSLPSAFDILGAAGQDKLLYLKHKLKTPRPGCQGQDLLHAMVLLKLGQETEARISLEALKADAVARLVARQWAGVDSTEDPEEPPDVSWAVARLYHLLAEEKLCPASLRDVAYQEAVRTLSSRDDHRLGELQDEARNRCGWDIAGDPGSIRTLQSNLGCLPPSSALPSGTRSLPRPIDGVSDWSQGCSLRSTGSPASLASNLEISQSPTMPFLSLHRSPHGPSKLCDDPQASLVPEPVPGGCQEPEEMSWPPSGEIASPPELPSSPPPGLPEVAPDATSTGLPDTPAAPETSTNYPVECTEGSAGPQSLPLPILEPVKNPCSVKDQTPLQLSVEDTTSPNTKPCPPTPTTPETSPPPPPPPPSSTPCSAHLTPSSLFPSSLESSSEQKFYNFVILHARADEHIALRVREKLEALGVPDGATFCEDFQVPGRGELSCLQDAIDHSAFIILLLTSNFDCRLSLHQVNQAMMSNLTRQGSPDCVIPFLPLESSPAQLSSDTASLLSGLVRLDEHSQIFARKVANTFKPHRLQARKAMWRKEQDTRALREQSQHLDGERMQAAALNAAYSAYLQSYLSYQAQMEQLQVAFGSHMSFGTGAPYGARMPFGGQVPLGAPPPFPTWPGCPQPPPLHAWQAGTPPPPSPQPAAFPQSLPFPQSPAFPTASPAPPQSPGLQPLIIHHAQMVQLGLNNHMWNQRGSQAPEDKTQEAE
row,Variant,effect of a mutation on the interaction
1,G601A,disrupting interaction strength

# Variants of: B1
# Conditions: with tirap_human TIRAP
row,Variant,effect of a mutation on the interaction
1,G601A,disrupting interaction strength

# Variants of: B1
# Conditions: with tcam2_human TICAM2, Q86XR7
# tcam2_human TICAM2, Q86XR7, sequence (Q86XR7 whole entry): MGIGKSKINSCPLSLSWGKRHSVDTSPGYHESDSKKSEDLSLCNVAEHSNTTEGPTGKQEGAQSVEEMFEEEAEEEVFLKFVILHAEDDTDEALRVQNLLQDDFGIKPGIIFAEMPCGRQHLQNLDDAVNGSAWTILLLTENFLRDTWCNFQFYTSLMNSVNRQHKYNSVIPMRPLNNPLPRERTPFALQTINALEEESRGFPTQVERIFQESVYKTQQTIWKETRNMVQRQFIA
row,Variant,effect of a mutation on the interaction
1,G601A,disrupting interaction strength
